# Test: Lactoferrin binding to calcium phosphate particles (UV 280 nm)
# Format: physicochemical
# Settings: binding concentration of 2.99 mg/ml
# Protocol: • Calcium phosphate particles • Lactoferrin from human milk, Sigma Aldrich, Catalog No. 0520-100MG Methods: • i. Lactoferrin solution was prepared in water at 4.98 mg/ml. • ii. 0.3 g of Calcium phosphate particles was suspended in 1.2 ml of water and mixed for 5 min. • iii. 1.8 ml of Lactoferrin solution at 4.98 mg/ml was added to achieve the final concentrations at 3.0 mg/ml, and the final volume was 3 ml. • iv. The suspension was mixed for 30 min, and centrifuged at 5000×g for 10 min in a bench top centrifuge. • v. The absorbance of supernatant was measured at 280 nm (the detection wavelength for Lactoferrin) by UV spectrophotometer. • vi. […] Lactoferrin bound was calculated by subtracting the amount of the Lactoferrin detected in the supernatant from the total initial amount in the binding suspension.
molecule,measurement,value
"Lactoferrin: Lactoferrin from human milk, Sigma Aldrich (protein, UniProt P02788 20-710, looked up) Lactotransferrin: GRRRSVQWCAVSQPEATKCFQWQRNMRKVRGPPVSCIKRDSPIQCIQAIAENRADAVTLDGGFIYEAGLAPYKLRPVAAEVYGTERQPRTHYYAVAVVKKGGSFQLNELQGLKSCHTGLRRTAGWNVPIGTLRPFLNWTGPPEPIEAAVARFFSASCVPGADKGQFPNLCRLCAGTGENKCAFSSQEPYFSYSGAFKCLRDGAGDVAFIRESTVFEDLSDEAERDEYELLCPDNTRKPVDKFKDCHLARVPSHAVVARSVNGKEDAIWNLLRQAQEKFGKDKSPKFQLFGSPSGQKDLLFKDSAIGFSRVPPRIDSGLYLGSGYFTAIQNLRKSEEEVAARRARVVWCAVGEQELRKCNQWSGLSEGSVTCSSASTTEDCIALVLKGEADAMSLDGGYVYTAGKCGLVPVLAENYKSQQSSDPDPNCVDRPVEGYLAVAVVRRSDTSLTWNSVKGKKSCHTAVDRTAGWNIPMGLLFNQTGSCKFDEYFSQSCAPGSDPRSNLCALCIGDEQGENKCVPNSNERYYGYTGAFRCLAENAGDVAFVKDVTVLQNTDGNNNEAWAKDLKLADFALLCLDGKRKPVTEARSCHLAMAPNHAVVSRMDKVERLKQVLLHQQAKFGRNGSDCPDKFCLFQSETKNLLFNDNTECLARLHGKTTYEKYLGPQYVAGITNLKKCSTSPLLEACEFLRK",Lactoferrin bound to calcium phosphate particles,29.63 mg/g

# From US10350168B2, “Dermal delivery compositions comprising active agent-calcium phosphate particle complexes and methods of using the same” (Laboratory Skin Care, Inc., priority 2009, dated 2019)
